Read-outs that look alike come from different tables or passages of the source.
B9: RapH (enzyme, B. subtilis)
chain: GSMSQAIPSSRVGVKINEWYKMIRQFSVPDAEILKAEVEQDIQQMEEDQDLLIYYSLMCFRHQLMLDYLEPGKTYGNRPTVTELLETIETPQKKLTGLLKYYSLFFRGMYEFDQKEYVEAIGYYREAEKELPFVSDDIEKAEFHFKVAEAYYHMKQTHVSMYHILQALDIYQNHPLYSIRTIQSLFVIAGNYDDFKHYDKALPHLEAALELAMDIQNDRFIAISLLNIANSYDRSGDDQMAVEHFQKAAKVSREKVPDLLPKVLFGLSWTLCKAGQTQKAFQFIEEGLDHITARSHKFYKELFLFLQAVYKETVDERKIHDLLSYFEKKNLHAYIEACARSAAAVFESSCHFEQAAAFYRKVLKAQEDILKGECLYAY
notes: two heterologous N-terminal residues (Gly-Ser) derived from the thrombin cleavage signal; RapH, B. subtilis strain 168, residues 1-376 (MW theor 44.1 kDa); Dimer in the crystal and in solution; also called RapHA; RapHB; source: E. coli BL21, purified (glutathione resin, thrombin, Source 15Q, Superdex 200; dialysis instead of gel filtration for the phosphatase and phosphotransfer assays); not …

Experiments:
[1] = target: T1, RapJ (B. subtilis), O34327; assay: SEC; size exclusion chromatography with gel filtration standards; experimental against theoretical molecular weight; details: remark: other sources report otherwise
T1 chain: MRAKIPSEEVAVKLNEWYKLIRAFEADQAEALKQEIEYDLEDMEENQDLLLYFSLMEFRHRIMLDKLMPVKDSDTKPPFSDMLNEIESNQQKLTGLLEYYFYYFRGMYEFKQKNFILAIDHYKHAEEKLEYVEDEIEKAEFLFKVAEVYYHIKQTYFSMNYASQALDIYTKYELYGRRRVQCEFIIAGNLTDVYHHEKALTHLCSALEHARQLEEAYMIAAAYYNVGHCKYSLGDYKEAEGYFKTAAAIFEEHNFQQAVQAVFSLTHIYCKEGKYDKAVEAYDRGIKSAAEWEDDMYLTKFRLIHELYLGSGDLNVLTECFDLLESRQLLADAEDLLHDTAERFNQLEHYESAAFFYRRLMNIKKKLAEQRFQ

[2] = target: T2, Spo0F~P (radiolabeled phosphorylated Spo0F-His) (B. subtilis) (UniProt P06628)
T2 sequence (chain, phosphoaspartate-54 (32P)): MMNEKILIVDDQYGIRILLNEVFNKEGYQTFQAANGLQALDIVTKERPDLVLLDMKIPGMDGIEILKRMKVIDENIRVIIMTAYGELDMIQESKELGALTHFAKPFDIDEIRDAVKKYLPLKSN

RapH [3] = target: B9; assay: crystal structure; vapor diffusion at 20°C; 7.5 mg/ml RapH and 3.5 mg/ml Spo0F in 20 mM Tris-HCl (pH 8.0), 100 mM KCl, 2.5 mM DTT, 5 mM MgCl2; well 20% PEG 3350, 200 mM lithium sulphate, 100 mM Bis-Tris (pH 6.0); refined to 2.20 Å; details: both partners purified
RapH [4] = target: B9; assay: crystal structure; crystals of native RapH with selenomethionyl Spo0F(D54E), as the native crystals but Bis-Tris at pH 5.8; SAD phasing, initial model at 2.70 Å; isomorphous to the native crystals; details: both partners purified
[5] = target: T2, Spo0F~P (radiolabeled phosphorylated Spo0F-His) (B. subtilis); remark: listed apart in the source
[6] = target: T2, Spo0F~P (radiolabeled phosphorylated Spo0F-His) (B. subtilis); remark: listed apart in the source
[7] = target: the molecule itself; assay: crystal structure; vapor diffusion at 20°C; 7.5 mg/ml RapH and 3.5 mg/ml Spo0F in 20 mM Tris-HCl (pH 8.0), 100 mM KCl, 2.5 mM DTT, 5 mM MgCl2; well 20% PEG 3350, 200 mM lithium sulphate, 100 mM Bis-Tris (pH 6.0); refined to 2.20 Å

B1: RapJ, O34327 1-373 (enzyme)
chain: MRAKIPSEEVAVKLNEWYKLIRAFEADQAEALKQEIEYDLEDMEENQDLLLYFSLMEFRHRIMLDKLMPVKDSDTKPPFSDMLNEIESNQQKLTGLLEYYFYYFRGMYEFKQKNFILAIDHYKHAEEKLEYVEDEIEKAEFLFKVAEVYYHIKQTYFSMNYASQALDIYTKYELYGRRRVQCEFIIAGNLTDVYHHEKALTHLCSALEHARQLEEAYMIAAAYYNVGHCKYSLGDYKEAEGYFKTAAAIFEEHNFQQAVQAVFSLTHIYCKEGKYDKAVEAYDRGIKSAAEWEDDMYLTKFRLIHELYLGSGDLNVLTECFDLLESRQLLADAEDLLHDTAERFNQLEHYESAAFFYRRLMNIKKKLAEQRFQ
[1]
  stoichiometry N: 2

B2: RapF-H50L (enzyme)
chain: MTGVISSSSIGEKINEWYMYIRRFSIPDAEYLRREIKQELDQMEEDQDLLLYYSLMEFRHNLMLEYLEPLEKMRIEEQPRLSDLLLEIDKKQARLTGLLEYYFNFFRGMYELDQREYLSAIKFFKKAESKLIFVKDRIEKAEFFFKMSESYYYMKQTYFSMDYARQAYEIYKEHEAYNIRLLQCHSLFATNFLDLKQYEDAISHFQKAYSMAEAEKQPQLMGRTLYNIGLCKNSQSQYEDAIPYFKRAIAVFEESNILPSLPQAYFLITQIHYKLGKIDKAHEYHSKGMAYSQKAGDVIYLSEFEFLKSLYLSGPDEEAIQGFFDFLESKMLYADLEDFAIDVAKYYHERKNFQKASAYFLKVEQVRQLIQGGVSLYEIEV
[2]
  Spo0F~P remaining after 30 min, in vitro phosphatase assay (26 uM RapF); RapF-H50L dephosphorylates Spo0F (% of Spo0F~P remaining): 16

B3: RapF (natural protein)
chain: MTGVISSSSIGEKINEWYMYIRRFSIPDAEYLRREIKQELDQMEEDQDLHLYYSLMEFRHNLMLEYLEPLEKMRIEEQPRLSDLLLEIDKKQARLTGLLEYYFNFFRGMYELDQREYLSAIKFFKKAESKLIFVKDRIEKAEFFFKMSESYYYMKQTYFSMDYARQAYEIYKEHEAYNIRLLQCHSLFATNFLDLKQYEDAISHFQKAYSMAEAEKQPQLMGRTLYNIGLCKNSQSQYEDAIPYFKRAIAVFEESNILPSLPQAYFLITQIHYKLGKIDKAHEYHSKGMAYSQKAGDVIYLSEFEFLKSLYLSGPDEEAIQGFFDFLESKMLYADLEDFAIDVAKYYHERKNFQKASAYFLKVEQVRQLIQGGVSLYEIEV
[2]
  Spo0F~P remaining after 30 min, in vitro phosphatase assay (26 uM RapF); wild-type RapF does not dephosphorylate Spo0F (% of Spo0F~P remaining): 54

B4: Spo0F (natural protein, B. subtilis)
chain: GSMMNEKILIVDDQYGIRILLNEVFNKEGYQTFQAANGLQALDIVTKERPDLVLLDMKIPGMDGIEILKRMKVIDENIRVIIMTAYGELDMIQESKELGALTHFAKPFDIDEIRDAVKKYLPLKSN
notes: two heterologous N-terminal residues (Gly-Ser) derived from the thrombin cleavage signal; Spo0F, B. subtilis strain 168, residues 1-124; The methods name the vector pETDuet-1 but purify over glutathione resin and remove a GST tag; also called Spo0FA; Spo0FB; source: E. coli BL21(DE3), purified (glutathione resin, thrombin, Source 15Q and HiTrap Heparin flow-through, Superdex 200); …
RapH [3]
  binding result: binds

B5: selenomethionyl Spo0F-D54E (natural protein, B. subtilis)
chain: GSMMNEKILIVDDQYGIRILLNEVFNKEGYQTFQAANGLQALDIVTKERPDLVLLEMKIPGMDGIEILKRMKVIDENIRVIIMTAYGELDMIQESKELGALTHFAKPFDIDEIRDAVKKYLPLKSN
modifications: selenomethionyl (selenomethionine derivatized)
notes: two heterologous N-terminal residues (Gly-Ser) derived from the thrombin cleavage signal; purified in an identical manner to Spo0F; Spo0F, B. subtilis strain 168, residues 1-124, with D54E; Used for SAD phasing; PDB 3Q15 holds the parent (wild-type Spo0F); source: E. coli BL21(DE3), purified as Spo0F (buffer D with 120 mM MgCl2); not shown: GST, N-terminal, cleaved
RapH [4]
  binding result: binds

B6: RapH-E137A (enzyme)
chain: GSMSQAIPSSRVGVKINEWYKMIRQFSVPDAEILKAEVEQDIQQMEEDQDLLIYYSLMCFRHQLMLDYLEPGKTYGNRPTVTELLETIETPQKKLTGLLKYYSLFFRGMYEFDQKEYVEAIGYYREAEKELPFVSDDIAKAEFHFKVAEAYYHMKQTHVSMYHILQALDIYQNHPLYSIRTIQSLFVIAGNYDDFKHYDKALPHLEAALELAMDIQNDRFIAISLLNIANSYDRSGDDQMAVEHFQKAAKVSREKVPDLLPKVLFGLSWTLCKAGQTQKAFQFIEEGLDHITARSHKFYKELFLFLQAVYKETVDERKIHDLLSYFEKKNLHAYIEACARSAAAVFESSCHFEQAAAFYRKVLKAQEDILKGECLYAY
[5]
  Spo0F~P remaining after 40 min, in vitro phosphatase assay (wild-type control 7%) (% of Spo0F~P remaining): 15

B7: RapH-F58A (enzyme)
chain: GSMSQAIPSSRVGVKINEWYKMIRQFSVPDAEILKAEVEQDIQQMEEDQDLLIYYSLMCARHQLMLDYLEPGKTYGNRPTVTELLETIETPQKKLTGLLKYYSLFFRGMYEFDQKEYVEAIGYYREAEKELPFVSDDIEKAEFHFKVAEAYYHMKQTHVSMYHILQALDIYQNHPLYSIRTIQSLFVIAGNYDDFKHYDKALPHLEAALELAMDIQNDRFIAISLLNIANSYDRSGDDQMAVEHFQKAAKVSREKVPDLLPKVLFGLSWTLCKAGQTQKAFQFIEEGLDHITARSHKFYKELFLFLQAVYKETVDERKIHDLLSYFEKKNLHAYIEACARSAAAVFESSCHFEQAAAFYRKVLKAQEDILKGECLYAY
[6]
  Spo0F~P remaining after 30 min, in vitro phosphatase assay (wild-type control 3%) (% of Spo0F~P remaining): 28

B8: RapH-Y175A (enzyme)
chain: GSMSQAIPSSRVGVKINEWYKMIRQFSVPDAEILKAEVEQDIQQMEEDQDLLIYYSLMCFRHQLMLDYLEPGKTYGNRPTVTELLETIETPQKKLTGLLKYYSLFFRGMYEFDQKEYVEAIGYYREAEKELPFVSDDIEKAEFHFKVAEAYYHMKQTHVSMYHILQALDIYQNHPLASIRTIQSLFVIAGNYDDFKHYDKALPHLEAALELAMDIQNDRFIAISLLNIANSYDRSGDDQMAVEHFQKAAKVSREKVPDLLPKVLFGLSWTLCKAGQTQKAFQFIEEGLDHITARSHKFYKELFLFLQAVYKETVDERKIHDLLSYFEKKNLHAYIEACARSAAAVFESSCHFEQAAAFYRKVLKAQEDILKGECLYAY
[5]
  Spo0F~P remaining after 30 min, in vitro phosphatase assay (wild-type control 3%) (% of Spo0F~P remaining): 54

## B9
[7]
  stoichiometry N: 2

B10: RapH-D134A (enzyme)
chain: GSMSQAIPSSRVGVKINEWYKMIRQFSVPDAEILKAEVEQDIQQMEEDQDLLIYYSLMCFRHQLMLDYLEPGKTYGNRPTVTELLETIETPQKKLTGLLKYYSLFFRGMYEFDQKEYVEAIGYYREAEKELPFVSADIEKAEFHFKVAEAYYHMKQTHVSMYHILQALDIYQNHPLYSIRTIQSLFVIAGNYDDFKHYDKALPHLEAALELAMDIQNDRFIAISLLNIANSYDRSGDDQMAVEHFQKAAKVSREKVPDLLPKVLFGLSWTLCKAGQTQKAFQFIEEGLDHITARSHKFYKELFLFLQAVYKETVDERKIHDLLSYFEKKNLHAYIEACARSAAAVFESSCHFEQAAAFYRKVLKAQEDILKGECLYAY
[5]
  Spo0F~P remaining after 30 min, in vitro phosphatase assay (wild-type control 3%) (% of Spo0F~P remaining): 13

B11: RapH-L50A (enzyme)
chain: GSMSQAIPSSRVGVKINEWYKMIRQFSVPDAEILKAEVEQDIQQMEEDQDLAIYYSLMCFRHQLMLDYLEPGKTYGNRPTVTELLETIETPQKKLTGLLKYYSLFFRGMYEFDQKEYVEAIGYYREAEKELPFVSDDIEKAEFHFKVAEAYYHMKQTHVSMYHILQALDIYQNHPLYSIRTIQSLFVIAGNYDDFKHYDKALPHLEAALELAMDIQNDRFIAISLLNIANSYDRSGDDQMAVEHFQKAAKVSREKVPDLLPKVLFGLSWTLCKAGQTQKAFQFIEEGLDHITARSHKFYKELFLFLQAVYKETVDERKIHDLLSYFEKKNLHAYIEACARSAAAVFESSCHFEQAAAFYRKVLKAQEDILKGECLYAY
[6]
  Spo0F~P remaining after 30 min, in vitro phosphatase assay (wild-type control 13%) (% of Spo0F~P remaining): 26

Reference: article PMC3035606, “Structural Basis of Response Regulator Dephosphorylation by Rap Phosphatases” (PLoS Biology, 2011)
